The target in one assay is human NGF (human) (UniProt P01138). The experiment in a line: SPR (Biacore T200), 100 nM mAb on NGF chip, vs parent mAb.
The target of a further assay is rat NGF (rat) (UniProt P25427). The assay is described as above.
Assay [1] addresses T1, canine NGF (canine, UniProt Q29074 110-229 (pig entry), limits assumed).
T1 chain: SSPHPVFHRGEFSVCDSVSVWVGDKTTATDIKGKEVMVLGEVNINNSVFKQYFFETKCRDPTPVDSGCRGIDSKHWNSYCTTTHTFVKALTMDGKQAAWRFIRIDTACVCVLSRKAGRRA
Put plainly: cell-based or functional assay.

Assay [2] addresses T1, canine NGF. Put plainly: cell-based or functional assay.
Assay [3] addresses T1, canine NGF. Put plainly: cell-based or functional assay.

Here are results for seven molecules from patent US20210214449A1 (ZOETIS SERVICES, published 2021).

Where a chain is given by its changes, count along the chain named. Where two headings read alike, the source gives them in different places.

human NGF (human), sequence (P01138 other isoform, or with tags, fused parts or gaps limits assumed): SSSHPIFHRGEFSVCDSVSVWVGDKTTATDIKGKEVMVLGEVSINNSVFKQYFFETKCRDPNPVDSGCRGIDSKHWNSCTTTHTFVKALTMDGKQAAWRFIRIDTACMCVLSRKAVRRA
rat NGF (rat), sequence (P25427 122-241 limits assumed): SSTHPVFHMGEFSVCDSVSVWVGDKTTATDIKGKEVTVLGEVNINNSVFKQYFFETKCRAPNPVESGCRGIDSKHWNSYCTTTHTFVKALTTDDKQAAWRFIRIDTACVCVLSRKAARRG

B1: can9L12VH_K98A (antibody, V domains shown)
VH: EVQLVESGGDLVKPGGSLRLSCVASGFTFSSHGMHWVRQSPGKGLQWVAVINSGGSSTYYTDAVKGRFTISRDNAKNTVYLQMNSLRAEDTAMYYCAAESVGGWEQLVGPHFDYWGQGTLVIVSS
VL: QSVLTQPTSVSGSLGQRVTISCSGSTNNIGILGASWYQLFPGKAPKLLVYGNGNRPSGVPDRFSGADSGDSVTLTITGLQAEDEADYYCQSFDTTLGAHVFGGGTHLTVL
Consider B1, for which the Percent Similarity Score (%) in the assay with human NGF (human) amounted to 8.58%; with rat NGF (rat), 7.92%.

B2: can9L12VH_W104A (antibody, V domains shown)
VH: B1 VH with A98K, W104A
VL: B1 VL
Turning to B2, in the assay with rat NGF (rat), the Percent Similarity Score (%) turned out to be 8.2%.

B3: ZTS-841 (antibody, V domains shown)
VH: B1 VH with A98K
VL: B1 VL
On to B3, for which the “IC50 (read off the curve), canine NGF-induced pERK-1/2 in caTrkA-CHO cells” value in the assay with canine NGF [1] was around 0.2 µg/ml. The “IC50 (read off the curve), canine NGF-induced TF-1 cell proliferation” value with canine NGF [2] is around 8 ng/mL.

B4: can9L12VH_F112A (antibody, V domains shown)
VH: B1 VH with A98K, F112A
VL: B1 VL
For the molecule B4, the Percent Similarity Score (%) in the assay with human NGF (human) was determined as 8%.

B5: can9L12VH_V101A (antibody, V domains shown)
VH: B1 VH with A98K, V101A
VL: B1 VL
Consider B5, for which, in the assay with human NGF (human), the Percent Similarity Score (%) turned out to be 5.29%.

B6: ZTS-842 (antibody, V domains shown)
VH: EVQLVESGGDLVKPGGSLRLSCVASGFTFSTYGINWVRQAPGKGLQWVAYISSGGSSTYYADPVKGRFTISRDDAKNMLYLQMNSLRAEDTAIYYCAGSRYTYAYGGGYEFHFWGQGTLVTVSS
VL: QAVLNQPASVSGALGQKVTISCSGSTMDIDIFGVSWYQQLPGKAPKLLVDSDGDRPSGIPDRFSGSRSGNSGTLTITGLQAEDEADYHCQSGDSTLGALAIFGGGTHVTVL
On to B6, for which, in the assay with canine NGF [1], the “IC50 (read off the curve), canine NGF-induced pERK-1/2 in caTrkA-CHO cells” value is around 0.1 µg/ml. In the assay with canine NGF [2], the “IC50 (read off the curve), canine NGF-induced TF-1 cell proliferation” value was around 5 ng/mL.

B7: fel48L2 1.1 (antibody, V domains shown)
VH: B6 VH with E1D, S21T, D74N, S85N, R87K, A88T, I93T
VL: QAVLNQPSSVSGALGQRVTISCSGSTMDIDIFGVSWYQQIPGMAPKTIIDSDGDRPSGVPDRFSGSKSGSTGTLTITGLQAEDEADYYCQSGDSTLGALAIFGGGTHVTVLG
For B7, the “IC50 (read off the curve), canine NGF-induced TF-1 cell proliferation” value with canine NGF [3] was around 7 ng/mL.
